Laboratory results taken from PMC11139983.
Blank lines part the entries; values can stand above or below the molecule they belong to.

Experiments:
[1] = molecular target: VUN701; experiment: BRET-based β-arrestin2 recruitment competition assay (functional KB); details: 90% effective concentration of CXCL12 determined for each ACKR3 variant; parent: est. 0.0; read off a plot
[2] = molecular target: atypical chemokine receptor 3 (ACKR3) (human)
[3] = molecular target: atypical chemokine receptor 3 (ACKR3) (human); remark: listed apart in the source

Sequence of atypical chemokine receptor 3 (ACKR3) (human) (chain, as listed by the source): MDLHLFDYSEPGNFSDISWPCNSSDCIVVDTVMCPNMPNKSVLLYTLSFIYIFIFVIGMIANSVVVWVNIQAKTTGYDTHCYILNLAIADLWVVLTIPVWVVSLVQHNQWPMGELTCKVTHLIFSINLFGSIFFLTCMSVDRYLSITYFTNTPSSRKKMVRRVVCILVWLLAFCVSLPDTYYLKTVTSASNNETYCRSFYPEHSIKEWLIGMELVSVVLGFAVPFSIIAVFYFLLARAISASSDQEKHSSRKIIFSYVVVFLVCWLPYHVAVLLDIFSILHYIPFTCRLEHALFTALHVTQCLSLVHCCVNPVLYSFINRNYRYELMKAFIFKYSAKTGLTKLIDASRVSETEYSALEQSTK

Molecule: atypical chemokine receptor 3 (ACKR3) F285A
log10 ratio [1]: -2.4

B1: VUN701 (VHH)
VHH: QVQLVESGGGLVQAGGSLRLSCAASGSTFSLHLMGWYRQAPGKQREVVATSGSGGDTNYADSVKGRFTISRDNDKNTVDLQMNNLKPEDTADYYCRAQQKIGRDTFRDYWGQGTQVTVSS
IC50 of inhibition of CXCL11-induced β-arrestin2 recruitment to ACKR3 (BRET, HEK293T); blocks m4 with m2 [2]: 105 nM
IC50 of inhibition of CXCL12-induced β-arrestin2 recruitment to ACKR3 (BRET, HEK293T); blocks m3 with m2 [2]: 157 nM
KB (Cheng-Prusoff) from inhibition of CXCL11-induced β-arrestin2 recruitment to ACKR3 (BRET); blocks m4 with m2 [2]: 23.3 nM
KB (Cheng-Prusoff) from inhibition of CXCL12-induced β-arrestin2 recruitment to ACKR3 (BRET); blocks m3 with m2 [2]: 9.8 nM
pKB (Cheng-Prusoff) from inhibition of CXCL11-induced β-arrestin2 recruitment to ACKR3 (BRET); blocks m4 with m2 [2]: 8.64
KB from Schild analysis of CXCL12-induced β-arrestin2 recruitment to ACKR3 (BRET); blocks m3 with m2 [3]: 18.2 nM

The next lines start with the values.

log10 ratio [1]: -1.8
Molecule: atypical chemokine receptor 3 (ACKR3) E290A

log10 ratio [1]: -1.8
Molecule: atypical chemokine receptor 3 (ACKR3) D275A
